Results reported in US20060020109A1 (Harvard, published 2006).
Values belong to the molecule of their own block, whether it stands above or below them.

Key:
[1] = target: soluble recombinant HLA-DR2 molecules (MHC class II HLA-DR2 protein) (human); assay: competition ELISA on soluble HLA-DR2; competitor biotinylated MBP 85-99 (0.13 µM)
[2] = target: soluble recombinant HLA-DR2 molecules (MHC class II HLA-DR2 protein) (human); assay: competition ELISA on soluble HLA-DR2; competitor biotinylated Cop 1 (1.5 µM)
[3] = target: T1, soluble recombinant HLA-DR2 molecules (MHC class II HLA-DR2 protein) (human); assay: as above
T1 construct: Soluble, empty protein from Drosophila S2 cells, captured on plates by antibody LB3.1; also called MHC class II DR2 protein; recombinant HLA-DR2 protein

[4] = target: HLA-DR2 (DRB1*1501) on antigen presenting cells (MGAR, L466) (human); assay: cell-based or functional assay
[5] = target: T2, soluble recombinant HLA-DR2 molecules (MHC class II HLA-DR2 protein) (human); assay: competition ELISA on soluble HLA-DR2; competitor biotinylated Cop 1 (1.5 µM); conditions: remark: other sources report otherwise
T2 chain 1: not shown
T2 chain 2: not shown

[6] = target: T1, soluble recombinant HLA-DR2 molecules …; assay: competition ELISA on soluble HLA-DR2; competitor biotinylated MBP 85-99 (0.13 µM)

B1: synthetic peptide #42 (peptide)
peptide: KEEYAAAAAAAAAAA
- IC50 [3]: > 1000 µM
- Inhibition of IL-2 production (%), Hy1B [4]: 49%

B11: synthetic peptide #52 (peptide)
peptide: AEKAYAAYAAAAAAA
- IC50 [3]: > 150 µM
- IC50 [6]: 150 µM
- Inhibition of IL-2 production (%), Hy1B [4]: 20%

B12: synthetic peptide #45 (peptide)
peptide: AKEAAAAYAAAAAAA
- IC50 [3]: > 150 µM
- IC50 [6]: 95 µM
- Inhibition of IL-2 production (%), Hy1B [4]: 0%

B13: synthetic peptide #102 (peptide)
peptide: EAKKYEAYKAAAAAA
- IC50 [3]: 2 µM
- IC50 [6]: 20 µM
- Inhibition of IL-2 production (%), Hy1B [4]: 57%

B14: synthetic peptide #108 (peptide)
peptide: EEAAYKAAKAAAAAA
- IC50 [3]: 2 µM
- IC50 [6]: > 1000 µM

B15: synthetic peptide #111 (peptide)
peptide: EEAAYKAAKAAAAAA
- IC50 [3]: < 1 µM
- IC50 [6]: > 1000 µM

B19: synthetic peptide #113 (peptide)
peptide: EAKAYEYAKAAAAAA
- IC50 [3]: < 1 µM
- IC50 [6]: > 1000 µM
- Inhibition of IL-2 production (%), Hy1B [4]: 30%

B20: synthetic peptide #106 (peptide)
peptide: EEKAYAYAKAAAAAA
- IC50 [3]: 100 µM
- IC50 [6]: > 1000 µM
- Inhibition of IL-2 production (%), Hy1B [4]: 39%

B22: synthetic peptide #112 (peptide)
peptide: EEAAYAYKKAAAAAA
- IC50 [3]: 15 µM
- IC50 [6]: > 1000 µM
- Inhibition of IL-2 production (%), Hy1B [4]: 32%

B23: synthetic peptide #50 (peptide)
peptide: AKKAAEAYAAAAAAA
- IC50 [3]: 40 µM
- IC50 [6]: 10 µM
- Inhibition of IL-2 production (%), Hy1B [4]: 22%

More lines, now with the values ahead:

- IC50 [1]: 100 µM
- IC50 [2]: 7 µM
Molecule: Cop 1 (Copolymer 1; poly(Y,E,A,K); Copaxone), unlabeled

- IC50 [5]: > 1000 µM
- Inhibition of IL-2 production (%), Hy1B [4]: 0%
B2: synthetic peptide #43 (peptide)
peptide: AEKAYAAAAAAAAAA

- IC50 [3]: 2 µM
- IC50 [6]: > 150 µM
- Inhibition of IL-2 production (%), Hy1B [4]: 56%
B3: synthetic peptide #100 (peptide)
peptide: EAAKYEAYKAAAAAA

- IC50 [3]: > 150 µM
- IC50 [6]: 3 µM
- Inhibition of IL-2 production (%), Hy1B [4]: 50%
B4: synthetic peptide #94 (peptide)
peptide: AAEAYKAYKAAAAAA

- IC50 [3]: > 1000 µM
- IC50 [6]: 40 µM
- Inhibition of IL-2 production (%), Hy1B [4]: 47%
B5: synthetic peptide #95 (peptide)
peptide: EAKAYEAYKAAAAAA

- IC50 [3]: 20 µM
- IC50 [6]: > 150 µM
- Inhibition of IL-2 production (%), Hy1B [4]: 53%
B6: synthetic peptide #104 (peptide)
peptide: AAEKYAEYKAAAAAA

- IC50 [3]: > 150 µM
- IC50 [6]: 5 µM
- Inhibition of IL-2 production (%), Hy1B [4]: 57%
B7: synthetic peptide #99 (peptide)
peptide: EAAAYKAYKAAAAAA

- IC50 [3]: > 150 µM
- IC50 [6]: 8 µM
- Inhibition of IL-2 production (%), Hy1B [4]: 48%
B8: synthetic peptide #93 (peptide)
peptide: AAKAYEAYKAAAAAA

- IC50 [3]: > 1000 µM
- IC50 [6]: 6 µM
- Inhibition of IL-2 production (%), Hy1B [4]: 43%
B9: synthetic peptide #96 (peptide)
peptide: EAEAYKAYKAAAAAA

- IC50 [3]: < 1 µM
- IC50 [6]: 3 µM
- Inhibition of IL-2 production (%), Hy1B [4]: 53%
B10: synthetic peptide #101 (peptide)
peptide: EKAKYEAYKAAAAAA

- IC50 [3]: > 1000 µM
- Inhibition of IL-2 production (%), Hy1B [4]: 18%
B16: synthetic peptide #64 (peptide)
peptide: AKAAYEAYAAAAAAA

- IC50 [3]: 40 µM
- IC50 [6]: < 1 µM
- Inhibition of IL-2 production (%), Hy1B [4]: 64%
B17: synthetic peptide #107 (peptide)
peptide: ENPVVHYFKNIVTPR
notes: Analog of MBP 85-99 with F to Y at the position of MBP residue 91

- IC50 [3]: > 150 µM
- IC50 [6]: 150 µM
- Inhibition of IL-2 production (%), Hy1B [4]: 13%
B18: synthetic peptide #53 (peptide)
peptide: AEEAYKAYAAAAAAA

- IC50 [3]: < 1 µM
- IC50 [6]: > 150 µM
- Inhibition of IL-2 production (%), Hy1B [4]: 49%
B21: synthetic peptide #103 (peptide)
peptide: AKKEYAEYKAAAAAA
